This is an account of results in US20060210984A1.

Test [1] deals with IL-1b (human) (UniProt P01584). Description: sandwich microarray in flow cell, chemiluminescence, cytokine 1 ng/ml; Chip 2.
Test [2] concerns the target IL-1b (human) (UniProt P01584). Description: sandwich microarray in flow cell, chemiluminescence, cytokine 1 ng/ml; Chip 5.
Test [3] has as its target IL-1b (human) (UniProt P01584). Description: sandwich microarray in flow cell, chemiluminescence, cytokine 1 ng/ml, divided by chip-specific PNA calibration factor; Chip 3.
The target of test [4] is IL-1b (human) (UniProt P01584). Description: sandwich microarray in flow cell, chemiluminescence, cytokine 1 ng/ml; Chip 4.
For test [5], the target named is IL-1b (human) (UniProt P01584). Description: sandwich microarray in flow cell, chemiluminescence, cytokine 1 ng/ml, divided by chip-specific PNA calibration factor; AVG of Chips 1-5.
The target in test [6] is IL-1b (human) (UniProt P01584). Description: sandwich microarray in flow cell, chemiluminescence, cytokine 1 ng/ml; Chip 3.
For test [7], the target named is IL-1b (human) (UniProt P01584). Description: sandwich microarray in flow cell, chemiluminescence, cytokine 1 ng/ml, divided by chip-specific PNA calibration factor; Chip 5.
For test [8], the target named is IL-1b (human) (UniProt P01584). Description: sandwich microarray in flow cell, chemiluminescence, cytokine 1 ng/ml; AVG of Chips 1-5.
The target of test [9] is IL-1b (human) (UniProt P01584). As to the kind of experiment: sandwich microarray in flow cell, chemiluminescence, cytokine 1 ng/ml, divided by chip-specific PNA calibration factor; Chip 4.
The target of test [10] is IL-1b (human) (UniProt P01584). Description: sandwich microarray in flow cell, chemiluminescence, cytokine 1 ng/ml; Chip 1.
The target of test [11] is IL-1b (human) (UniProt P01584). Description: sandwich microarray in flow cell, chemiluminescence, cytokine 1 ng/ml, divided by chip-specific PNA calibration factor; Chip 1.
Test [12] deals with IL-1b (human) (UniProt P01584). Description: sandwich microarray in flow cell, chemiluminescence, cytokine 1 ng/ml, divided by chip-specific PNA calibration factor; Chip 2.
Test [13] addresses IL-8 (human) (UniProt P10145). As to the kind of experiment: sandwich microarray in flow cell, chemiluminescence, cytokine 1 ng/ml; Chip 2.
In test [14] the target is IL-8 (human) (UniProt P10145). Description: sandwich microarray in flow cell, chemiluminescence, cytokine 1 ng/ml; Chip 5.
Test [15] addresses IL-8 (human) (UniProt P10145). As to the kind of experiment: sandwich microarray in flow cell, chemiluminescence, cytokine 1 ng/ml, divided by chip-specific PNA calibration factor; Chip 3.
The target of test [16] is IL-8 (human) (UniProt P10145). As to the kind of experiment: sandwich microarray in flow cell, chemiluminescence, cytokine 1 ng/ml; Chip 4.
Test [17] concerns the target IL-8 (human) (UniProt P10145). As to the kind of experiment: sandwich microarray in flow cell, chemiluminescence, cytokine 1 ng/ml, divided by chip-specific PNA calibration factor; AVG of Chips 1-5.
Test [18] has as its target IL-8 (human) (UniProt P10145). As to the kind of experiment: sandwich microarray in flow cell, chemiluminescence, cytokine 1 ng/ml; Chip 3.
Test [19] addresses IL-8 (human) (UniProt P10145). As to the kind of experiment: sandwich microarray in flow cell, chemiluminescence, cytokine 1 ng/ml, divided by chip-specific PNA calibration factor; Chip 5.
Test [20] concerns the target IL-8 (human) (UniProt P10145). Description: sandwich microarray in flow cell, chemiluminescence, cytokine 1 ng/ml; AVG of Chips 1-5.
The target of test [21] is IL-8 (human) (UniProt P10145). As to the kind of experiment: sandwich microarray in flow cell, chemiluminescence, cytokine 1 ng/ml, divided by chip-specific PNA calibration factor; Chip 4.
Test [22] has as its target IL-8 (human) (UniProt P10145). Description: sandwich microarray in flow cell, chemiluminescence, cytokine 1 ng/ml; Chip 1.
In test [23] the target is IL-8 (human) (UniProt P10145). As to the kind of experiment: sandwich microarray in flow cell, chemiluminescence, cytokine 1 ng/ml, divided by chip-specific PNA calibration factor; Chip 1.
Test [24] concerns the target IL-8 (human) (UniProt P10145). As to the kind of experiment: sandwich microarray in flow cell, chemiluminescence, cytokine 1 ng/ml, divided by chip-specific PNA calibration factor; Chip 2.
For test [25], the target named is IL-10 (human) (UniProt P22301). Description: sandwich microarray in flow cell, chemiluminescence, cytokine 1 ng/ml; Chip 2.
Test [26] concerns the target IL-10 (human) (UniProt P22301). As to the kind of experiment: sandwich microarray in flow cell, chemiluminescence, cytokine 1 ng/ml; Chip 5.
For test [27], the target named is IL-10 (human) (UniProt P22301). As to the kind of experiment: sandwich microarray in flow cell, chemiluminescence, cytokine 1 ng/ml, divided by chip-specific PNA calibration factor; Chip 3.
Test [28] concerns the target IL-10 (human) (UniProt P22301). Description: sandwich microarray in flow cell, chemiluminescence, cytokine 1 ng/ml; Chip 4.
Test [29] concerns the target IL-10 (human) (UniProt P22301). Description: sandwich microarray in flow cell, chemiluminescence, cytokine 1 ng/ml, divided by chip-specific PNA calibration factor; AVG of Chips 1-5.
Test [30] concerns the target IL-10 (human) (UniProt P22301). As to the kind of experiment: sandwich microarray in flow cell, chemiluminescence, cytokine 1 ng/ml; Chip 3.
Test [31] addresses IL-10 (human) (UniProt P22301). As to the kind of experiment: sandwich microarray in flow cell, chemiluminescence, cytokine 1 ng/ml, divided by chip-specific PNA calibration factor; Chip 5.
Test [32] deals with IL-10 (human) (UniProt P22301). As to the kind of experiment: sandwich microarray in flow cell, chemiluminescence, cytokine 1 ng/ml; AVG of Chips 1-5.
The target in test [33] is IL-10 (human) (UniProt P22301). As to the kind of experiment: sandwich microarray in flow cell, chemiluminescence, cytokine 1 ng/ml, divided by chip-specific PNA calibration factor; Chip 4.
In test [34] the target is IL-10 (human) (UniProt P22301). As to the kind of experiment: sandwich microarray in flow cell, chemiluminescence, cytokine 1 ng/ml; Chip 1.
Test [35] has as its target IL-10 (human) (UniProt P22301). Description: sandwich microarray in flow cell, chemiluminescence, cytokine 1 ng/ml, divided by chip-specific PNA calibration factor; Chip 1.
Test [36] concerns the target IL-10 (human) (UniProt P22301). As to the kind of experiment: sandwich microarray in flow cell, chemiluminescence, cytokine 1 ng/ml, divided by chip-specific PNA calibration factor; Chip 2.
Test [37] concerns the target IL-12p40 (human) (UniProt P29460). Description: sandwich microarray in flow cell, chemiluminescence, cytokine 1 ng/ml; Chip 2.
Test [38] shares this target. As to the kind of experiment: sandwich microarray in flow cell, chemiluminescence, cytokine 1 ng/ml; Chip 5.
Test [39] shares this target. As to the kind of experiment: sandwich microarray in flow cell, chemiluminescence, cytokine 1 ng/ml, divided by chip-specific PNA calibration factor; Chip 3.
The target is the same in test [40]. As to the kind of experiment: sandwich microarray in flow cell, chemiluminescence, cytokine 1 ng/ml; Chip 4.
The target is the same in test [41]. As to the kind of experiment: sandwich microarray in flow cell, chemiluminescence, cytokine 1 ng/ml, divided by chip-specific PNA calibration factor; AVG of Chips 1-5.
Test [42] shares this target. Description: sandwich microarray in flow cell, chemiluminescence, cytokine 1 ng/ml; Chip 3.
For test [43] the target is unchanged. As to the kind of experiment: sandwich microarray in flow cell, chemiluminescence, cytokine 1 ng/ml, divided by chip-specific PNA calibration factor; Chip 5.
For test [44] the target is unchanged. Description: sandwich microarray in flow cell, chemiluminescence, cytokine 1 ng/ml; AVG of Chips 1-5.
Test [45] shares this target. Description: sandwich microarray in flow cell, chemiluminescence, cytokine 1 ng/ml, divided by chip-specific PNA calibration factor; Chip 4.
For test [46] the target is unchanged. As to the kind of experiment: sandwich microarray in flow cell, chemiluminescence, cytokine 1 ng/ml; Chip 1.
Test [47] has the same target. As to the kind of experiment: sandwich microarray in flow cell, chemiluminescence, cytokine 1 ng/ml, divided by chip-specific PNA calibration factor; Chip 1.
For test [48] the target is unchanged. As to the kind of experiment: sandwich microarray in flow cell, chemiluminescence, cytokine 1 ng/ml, divided by chip-specific PNA calibration factor; Chip 2.

UniProt P10145, sequence (P10145 28-99 limits assumed): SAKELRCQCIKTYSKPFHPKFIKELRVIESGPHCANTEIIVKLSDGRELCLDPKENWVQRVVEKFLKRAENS
UniProt P29460, sequence (P29460 23-328 limits assumed): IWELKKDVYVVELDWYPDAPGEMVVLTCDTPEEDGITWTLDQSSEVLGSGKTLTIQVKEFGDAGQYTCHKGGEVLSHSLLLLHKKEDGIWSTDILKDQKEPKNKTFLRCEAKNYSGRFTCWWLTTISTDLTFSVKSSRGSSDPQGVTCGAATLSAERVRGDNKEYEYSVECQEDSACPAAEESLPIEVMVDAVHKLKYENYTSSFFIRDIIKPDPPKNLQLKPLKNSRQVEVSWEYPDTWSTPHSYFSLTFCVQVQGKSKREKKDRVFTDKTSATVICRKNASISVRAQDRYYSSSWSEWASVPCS
UniProt P22301, sequence (P22301 19-178 limits assumed): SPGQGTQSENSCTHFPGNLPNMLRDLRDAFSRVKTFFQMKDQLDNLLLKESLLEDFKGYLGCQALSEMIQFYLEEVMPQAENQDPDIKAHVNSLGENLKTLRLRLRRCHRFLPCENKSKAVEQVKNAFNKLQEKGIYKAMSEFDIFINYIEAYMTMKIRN
UniProt P01584, sequence (P01584 117-269 limits assumed): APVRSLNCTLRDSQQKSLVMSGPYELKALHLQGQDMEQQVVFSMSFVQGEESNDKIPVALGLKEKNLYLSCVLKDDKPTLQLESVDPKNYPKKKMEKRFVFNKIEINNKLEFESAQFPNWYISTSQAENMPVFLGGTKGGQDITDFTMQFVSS

As for “MAb IL-1b (monoclonal capture antibody of the anti-human IL-1b OptEIA matched pair, BD Biosciences-Pharmingen)”, the chemiluminescent spot intensity (Un-Calibrated Data) in test [1] was 150; in [2], 131; in test [4] it was 221; in test [6] it was 486; in test [8] it was 257; in test [10], 297. For the same substance, the chemiluminescent spot intensity (Calibrated Data) in [3] stood at 486; in [5] it was 477; in [7], 404; in test [9], 485; in [11] it was 498; in test [12], 513.

In the case of “MAb IL-8 (monoclonal capture antibody of the anti-human IL-8 OptEIA matched pair, BD Biosciences-Pharmingen)”, the chemiluminescent spot intensity (Un-Calibrated Data) came to 804 in test [13]; 905 in [14]; 1320 in test [16]; 3100 in [18]; 1580 in test [20]; 1760 in test [22]. Further, the chemiluminescent spot intensity (Calibrated Data) in test [15] came to 3100; in [17], 2900; in test [19], 2790; in test [21], 2900; in test [23], 2960; in [24], 2750.

On to “MAb IL-10 (monoclonal capture antibody of the anti-human IL-10 OptEIA matched pair, BD Biosciences-Pharmingen)”, for which the chemiluminescent spot intensity (Un-Calibrated Data) was determined as 389 in test [25]; 414 in test [26]; 508 in [28]; 1360 in test [30]; 691 in test [32]; 788 in test [34]. The chemiluminescent spot intensity (Calibrated Data) in test [27] was determined as 1360; in test [29], 1280; in test [31] it was 1280; in test [33], 1120; in test [35], 1320; in test [36], 1330.

Turning to “MAb IL-12p40 (monoclonal capture antibody of the anti-human IL-12p40 OptEIA matched pair, BD Biosciences-Pharmingen)”, the chemiluminescent spot intensity (Un-Calibrated Data) in test [37] worked out at 79; in test [38], 87; in test [40], 125; in test [42], 312; in test [44], 156; in test [46], 179. Also, the chemiluminescent spot intensity (Calibrated Data) is 312 in test [39]; 285 in [41]; 268 in [43]; 275 in test [45]; 300 in test [47]; 270 in test [48].
